The source of these data is patent US20160347802A1 (MAX PLANCK GESELLSCHAFT ZUR FOERDERUNG DER WISSENSCHAFTEN E …, published 2016).

B1: human Netrin-4, AVEXIS protein (ligand, UniProt Q9HB63 19-628, looked up)
chain: GLSGVAGVSSRCEKACNPRMGNLALGRKLWADTTCGQNATELYCFYSENTDLTCRQPKCDKCNAAYPHLAHLPSAMADSSFRFPRTWWQSAEDVHREKIQLDLEAEFYFTHLIVMFKSPRPAAMVLDRSQDFGKTWKPYKYFATNCSATFGLEDDVVKKGAICTSKYSSPFPCTGGEVIFKALSPPYDTENPYSAKVQEQLKITNLRVQLLKRQSCPCQRNDLNEEPQHFTHYAIYDFIVKGSCFCNGHADQCIPVHGFRPVKAPGTFHMVHGKCMCKHNTAGSHCQHCAPLYNDRPWEAADGKTGAPNECRTCKCNGHADTCHFDVNVWEASGNRSGGVCDDCQHNTEGQYCQRCKPGFYRDLRRPFSAPDACKPCSCHPVGSAVLPANSVTFCDPSNGDCPCKPGVAGRRCDRCMVGYWGFGDYGCRPCDCAGSCDPITGDCISSHTDIDWYHEVPDFRPVHNKSEPAWEWEDAQGFSALLHSGKCECKEQTLGNAKAFCGMKYSYVLKIKILSAHDKGTHVEVNVKIKKVLKSTKLKIFRGKRTLYPESWTDRGCTCPILNPGLEYLVAGHEDIRTGKLIVNMKSFVQHWKPSLGRKVMDILKRECK
notes: not shown: AVEXIS tag (bait or prey)
B2: human Netrin-G1, AVEXIS protein (ligand, UniProt Q9Y2I2 29-510, looked up)
chain: HYDLCKTQIYTEEGKVWDYMACQPESTDMTKYLKVKLDPPDITCGDPPETFCAMGNPYMCNNECDASTPELAHPPELMFDFEGRHPSTFWQSATWKEYPKPLQVNITLSWSKTIELTDNIVITFESGRPDQMILEKSLDYGRTWQPYQYYATDCLDAFHMDPKSVKDLSQHTVLEIICTEEYSTGYTTNSKIIHFEIKDRFAFFAGPRLRNMASLYGQLDTTKKLRDFFTVTDLRIRLLRPAVGEIFVDELHLARYFYAISDIKVRGRCKCNLHATVCVYDNSKLTCECEHNTTGPDCGKCKKNYQGRPWSPGSYLPIPKGTANTCIPSISSIGNCECFGHSNRCSYIDLLNTVICVSCKHNTRGQHCELCRLGYFRNASAQLDDENVCIECYCNPLGSIHDRCNGSGFCECKTGTTGPKCDECLPGNSWHYGCQPNVCDNELLHCQNGGTCHNNVRCLCPAAYTGILCEKLRCEEAGSCGS
notes: as for B1

Data set [1] concerns the target T1, human Netrin1, recombinant AVEXIS protein (biotinylated when immobilised) (human, UniProt O95631 25-604).
T1 construct: also called NTN1
Nature of the data set: AVEXIS, prey NTN1 on bait NTN4. The text has this: (§1) The Matn4-bait served as an internal prey-protein control and was used for normalization of the A486 nm values; conditioned medium (CM) serves as negative control; n=3.

Data set [2] concerns the molecule itself. Nature of the data set: AVEXIS, prey NTN4 on bait NTN4.
Description: as §1

Data set [3] addresses T1, human Netrin1, recombinant AVEXIS …. Description: AVEXIS, prey on bait NTN1; white = No binding.
Description: as §1

The target in data set [4] is T2, human Netrin-3, AVEXIS protein (human, UniProt O00634 28-580).
T2 construct: not shown: AVEXIS tag (bait or prey)
T2 sequence (O00634 28-580): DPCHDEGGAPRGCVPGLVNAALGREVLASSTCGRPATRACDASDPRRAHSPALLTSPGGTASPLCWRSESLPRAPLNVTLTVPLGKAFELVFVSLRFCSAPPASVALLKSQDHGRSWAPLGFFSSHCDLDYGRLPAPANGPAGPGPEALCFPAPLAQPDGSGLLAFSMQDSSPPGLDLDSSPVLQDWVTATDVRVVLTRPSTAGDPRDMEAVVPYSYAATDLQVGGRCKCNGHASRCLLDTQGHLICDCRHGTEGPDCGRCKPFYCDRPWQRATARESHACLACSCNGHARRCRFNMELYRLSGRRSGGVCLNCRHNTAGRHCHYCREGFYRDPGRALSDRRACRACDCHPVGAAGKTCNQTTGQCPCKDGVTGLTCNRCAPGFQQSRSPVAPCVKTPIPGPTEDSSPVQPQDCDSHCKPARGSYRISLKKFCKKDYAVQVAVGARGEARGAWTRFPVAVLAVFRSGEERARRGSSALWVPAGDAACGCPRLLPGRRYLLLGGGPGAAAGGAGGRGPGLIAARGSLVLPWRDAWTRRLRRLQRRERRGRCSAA
Description: AVEXIS, prey on bait NTN3; white = No binding.
Description: as §1

Data set [5] deals with the molecule itself. Nature of the data set: AVEXIS, prey on bait NTN4; white = No binding.
Description: as §1

Data set [6] concerns the target B2. Nature of the data set: AVEXIS, prey on bait NTNG1; white = No binding.
Description: as §1

Data set [7] has as its target T3, human Netrin-G2, AVEXIS protein (human, UniProt Q96CW9 18-507).
T3 construct: not shown: AVEXIS tag (bait or prey)
T3 sequence (looked up): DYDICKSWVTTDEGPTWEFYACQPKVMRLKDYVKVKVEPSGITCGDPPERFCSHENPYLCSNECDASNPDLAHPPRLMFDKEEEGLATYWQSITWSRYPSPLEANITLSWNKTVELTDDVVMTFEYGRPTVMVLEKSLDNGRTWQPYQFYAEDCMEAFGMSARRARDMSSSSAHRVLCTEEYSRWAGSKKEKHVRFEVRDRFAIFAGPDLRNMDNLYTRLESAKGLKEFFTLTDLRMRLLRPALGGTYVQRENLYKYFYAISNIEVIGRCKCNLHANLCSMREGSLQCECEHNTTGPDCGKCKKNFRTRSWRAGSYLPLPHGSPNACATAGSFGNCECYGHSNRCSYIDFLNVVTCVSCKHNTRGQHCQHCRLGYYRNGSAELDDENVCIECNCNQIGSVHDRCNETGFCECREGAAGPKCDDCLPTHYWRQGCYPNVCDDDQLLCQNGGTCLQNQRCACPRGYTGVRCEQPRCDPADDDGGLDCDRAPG
Description: AVEXIS, prey on bait NTNG2; white = No binding.
Description: as §1

Data set [8] concerns the target T4, biotinylated recombinant human UNC5B (human, UniProt Q8IZJ1 27-377).
T4 construct: Made in HEK293-6E and immobilised on an SA chip
Description: AVEXIS, prey on bait UNC5B; white = No binding.
Description: as §1

The target in data set [9] is T5, human DRAXIN, AVEXIS prey or bait protein (human, UniProt Q8NBI3 26-349).
T5 sequence: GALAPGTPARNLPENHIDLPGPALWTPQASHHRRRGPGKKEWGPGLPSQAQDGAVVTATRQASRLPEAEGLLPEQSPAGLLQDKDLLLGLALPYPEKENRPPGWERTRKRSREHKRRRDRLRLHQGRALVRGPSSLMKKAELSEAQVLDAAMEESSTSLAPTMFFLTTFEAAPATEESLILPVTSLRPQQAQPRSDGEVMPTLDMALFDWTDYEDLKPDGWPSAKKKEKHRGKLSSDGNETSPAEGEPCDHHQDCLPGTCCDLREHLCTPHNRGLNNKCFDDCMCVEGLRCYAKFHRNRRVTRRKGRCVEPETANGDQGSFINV
Description: AVEXIS, prey on bait DRAXIN; white = No binding.
Description: as §1

Data set [10] concerns the target T6, human DRAXIN 21 amino acid Netrin binding fragment, AVEXIS prey or bait protein (human).
T6 construct: Tested in both bait and prey orientations; also called human 21 amino acid DRAXIN fragment; derived 21 amino acid peptide; not shown: AVEXIS tag (rat Cd4d3+4 and prey or bait module)
T6 peptide: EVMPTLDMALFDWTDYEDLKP
Nature of the data set: AVEXIS, prey on bait DRAXIN 21aa; white = No binding.
Description: as §1

Data set [11] concerns the target T7, Matn4 ECD, mono-biotinylated bait protein (positive control).
T7 construct: extracellular domain; also called Matn4-bait
Description: AVEXIS, prey on bait Matn4 (+), positive control for the prey; dark = Binding.
Description: as §1

Data set [12] concerns the target T1, human Netrin1, recombinant AVEXIS …. Description: AVEXIS, prey NTN1 on bait NTNG1.
Description: as §1

Data set [13] deals with T2, human Netrin-3, AVEXIS protein. Description: AVEXIS, prey NTN3 on bait NTNG1.
Description: as §1

Data set [14] has as its target B1. Nature of the data set: AVEXIS, prey NTN4 on bait NTNG1.
Description: as §1

Data set [15] concerns the molecule itself. Description: AVEXIS, prey NTNG1 on bait NTNG1.
Description: as §1

The target of data set [16] is T3, human Netrin-G2, AVEXIS protein. Nature of the data set: AVEXIS, prey NTNG1 on bait NTNG2.
Description: as §1

The target of data set [17] is B1. Nature of the data set: AVEXIS, prey on bait NTN4; white = No binding.
Description: as §1

Data set [18] deals with the molecule itself. Description: AVEXIS, prey on bait NTNG1; white = No binding.
Description: as §1

Turning to B1, the binding result in [1] and in data set [2] was “no binding” in each case. Besides, the A486nm was 0.067 in data set [3]; 0.065 in data set [4]; 0.068 in data set [5]; 0.065 in [6]; 0.063 in data set [7]; 0.063 in data set [8]. Also, the A486nm in data set [9] was 0.063; in data set [10], 0.067; in data set [11] it was 0.235.

B2: the binding result in [12], in [13], in data set [14], in [15] and in data set [16] was “no binding” in each case. The A486nm in data set [3] is 0.062; in [4], 0.064; in data set [17], 0.066; in data set [18], 0.062; in data set [7], 0.061; in [8], 0.061. In addition, the A486nm in data set [9] amounted to 0.061; in data set [10], 0.063; in data set [11] it was 0.254.
